Reference: paper PMC3411838

B1: full-length BCL10 E50A (pEGFP-C1) (natural protein)
chain: MEAPAPSLTEEDLTEVKKDALENLRVYLCEKIIAERHFDHLRAKKILSRADTEEISCRTSSRKRAGKLLDYLQENPRGLDTLVESIRREKTQSFLIQKITDEVLKLRNIKLEHLKGLKCSSCEPFAAGATNNLSRCNSDESNLSEKQRASTVMYHPEGESSTAPFFSMASSLNLPVLEVGRTENSSFSSATLPRPGDPGAPPLPPDLRLEEGGSCGNSSEMFLPLRSRALSRQ
B2: full-length BCL10 E53A (pEGFP-C1) (natural protein)
chain: MEAPAPSLTEEDLTEVKKDALENLRVYLCEKIIAERHFDHLRAKKILSREDTAEISCRTSSRKRAGKLLDYLQENPRGLDTLVESIRREKTQSFLIQKITDEVLKLRNIKLEHLKGLKCSSCEPFAAGATNNLSRCNSDESNLSEKQRASTVMYHPEGESSTAPFFSMASSLNLPVLEVGRTENSSFSSATLPRPGDPGAPPLPPDLRLEEGGSCGNSSEMFLPLRSRALSRQ
B3: full-length BCL10 E54A (pEGFP-C1) (natural protein)
chain: MEAPAPSLTEEDLTEVKKDALENLRVYLCEKIIAERHFDHLRAKKILSREDTEAISCRTSSRKRAGKLLDYLQENPRGLDTLVESIRREKTQSFLIQKITDEVLKLRNIKLEHLKGLKCSSCEPFAAGATNNLSRCNSDESNLSEKQRASTVMYHPEGESSTAPFFSMASSLNLPVLEVGRTENSSFSSATLPRPGDPGAPPLPPDLRLEEGGSCGNSSEMFLPLRSRALSRQ

Target: T1, Myc-tagged CARMA1-CARD (wild type) (mouse) (UniProt Q8CIS0)
T1 sequence: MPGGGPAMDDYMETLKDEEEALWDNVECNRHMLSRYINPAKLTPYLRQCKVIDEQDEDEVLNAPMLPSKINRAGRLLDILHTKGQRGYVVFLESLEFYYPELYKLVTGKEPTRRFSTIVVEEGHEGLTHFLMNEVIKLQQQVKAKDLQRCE

NF-κB activation-dependent dual luciferase reporter in HEK293T, full-length BCL10 mutant against wild type (CARMA1 not co-transfected), < 40%:
B1
B2
B3
